# Residue numbers refer to the chain shown, from its start.
# T1: hNotch 2 (EGF6-EGF13) (human, UniProt Q04721 221-530, biotinylated (site not stated))
# T1 construct: domain: EGF6-EGF13; Immobilised on the SPR chip through biotin; also called biotinylated Notch2
# T1 sequence (looked up): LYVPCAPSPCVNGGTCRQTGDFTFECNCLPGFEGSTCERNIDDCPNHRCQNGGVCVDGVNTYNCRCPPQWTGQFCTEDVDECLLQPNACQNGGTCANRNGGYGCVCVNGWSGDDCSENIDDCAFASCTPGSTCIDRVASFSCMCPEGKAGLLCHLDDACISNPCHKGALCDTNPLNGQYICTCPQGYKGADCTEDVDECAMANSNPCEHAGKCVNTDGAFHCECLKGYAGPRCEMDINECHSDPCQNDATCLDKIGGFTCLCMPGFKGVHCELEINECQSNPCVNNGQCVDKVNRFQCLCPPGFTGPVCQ
# T2: hNotch 3 (EGF5-EGF12) (human, UniProt Q9UM47 197-505, biotinylated (site not stated))
# T2 construct: domain: EGF5-EGF12; Immobilised on the SPR chip through biotin; also called biotinylated Notch3
# T2 sequence (looked up): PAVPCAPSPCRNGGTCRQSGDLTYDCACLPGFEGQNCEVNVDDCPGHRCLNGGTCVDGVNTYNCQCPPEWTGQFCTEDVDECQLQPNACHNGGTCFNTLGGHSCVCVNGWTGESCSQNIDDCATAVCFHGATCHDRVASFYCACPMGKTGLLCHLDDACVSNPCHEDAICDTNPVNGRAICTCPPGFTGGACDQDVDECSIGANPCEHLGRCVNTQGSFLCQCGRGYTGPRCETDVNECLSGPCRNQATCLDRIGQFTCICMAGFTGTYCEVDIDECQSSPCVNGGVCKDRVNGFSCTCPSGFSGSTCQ
# B1: WT hDLL4 (N-EGF3) (ligand)
# chain: SGVFQLQLQEFINERGVLASGRPCEPGCRTFFRVCLKHFQAVVSPGPCTFGTVSTPVLGTNSFAVRDDSSGGGRNPLQLPFNFTWPGTFSLIIEAWHAPGDDLRPEALPPDALISKIAIQGSLAVGQNWLLDEQTSTLTRLRYSYRVICSDNYYGDNCSRLCKKRNDHFGHYVCQPDGNLSCLPGWTGEYCQQPICLSGCHEQNGYCSKPAECLCRPGWQGRLCNECIPHNGCRHGTCSTPWQCTCDEGWGGLFCDQDLNYCTHHSPCKNGATCSNSGQRSYTCTCRPGYTGVDCE
# notes: also called WT DLL4; wildtype
# B2: 3a.5_E12 (N-EGF3) (ligand)
# chain: B1 chain with G2S, F81L, I117F, H168Y, L180P, N231P, T245L, F254Y, S275R, Q279P
# notes: also called DLL4.v3; N3a.5_E12
# Tests used:
# [1] = target: Notch1 (as used for the SPR of Example 1); test: SPR
# hNotch 2 (EGF6-EGF13) [2] = target: T1, hNotch 2 (EGF6-EGF13); test: SPR, biotinylated Notch on chip, 1:1 equilibrium binding model
# Method: (§1) 100. Next, the binding affinity of each individual variant was determined by surface plasmon resonance. Biotinylated Notch1, Notch2, or Notch3 proteins containing the domains indicated above were immobilized on a surface plasmon resonance sensor chip. Increasing concentrations of WT DLL4 or DLL4.v3 were then flowed over the chip and dissociation constants were determined by fitting the data to a 1:1 equilibrium binding model. As shown in FIG. 4 and Table 3, the binding affinity of DLL4.v3 was at least 3 orders of magnitude stronger than wildtype.
# hNotch 3 (EGF5-EGF12) [3] = target: T2, hNotch 3 (EGF5-EGF12); test: as above
# Method: as §1
# hNotch 1 (EGF6-EGF13) [4] = target: T3, hNotch 1 (EGF6-EGF13) (human, UniProt P46531 218-526, biotinylated (site not stated)); test: as above
# T3 construct: domain: EGF6-EGF13; Immobilised on the SPR chip through biotin; also called biotinylated Notch1
# Method: as §1
# hNotch 2 (EGF6-EGF13) [5] = target: T1, hNotch 2 (EGF6-EGF13); test: SPR
# Method: as §1
# hNotch 3 (EGF5-EGF12) [6] = target: T2, hNotch 3 (EGF5-EGF12); test: SPR
# Method: as §1
# hNotch 1 (EGF6-EGF13) [7] = target: T3, hNotch 1 (EGF6-EGF13); test: SPR
# Method: as §1
Molecule,Kd [1],Kd (hNotch 2 (EGF6-EGF13) [2]),Kd (hNotch 3 (EGF5-EGF12) [3]),Kd (hNotch 1 (EGF6-EGF13) [4]),binding affinity relative to wildtype (hNotch 2 (EGF6-EGF13) [5]),binding affinity relative to wildtype (hNotch 3 (EGF5-EGF12) [6]),binding affinity relative to wildtype (hNotch 1 (EGF6-EGF13) [7])
wild type rat DLL4 (from UniProt D3ZHH1 27-401) (ligand),12.7 µM,–,–,–,–,–,–
B1,–,35.7 µM,22 µM,17.9 µM,–,–,–
B2,–,0.0314 µM,0.0273 µM,0.02 µM,≥ 1000 fold,~1000 fold,~1000 fold

# From patent US20220241335A1 (H LEE MOFFITT CANCER CENTER AND RESEARCH INST5ITUTE, published 2022)
